# Experimental data taken from the RNAGym collection of RNA variant scans (doi:10.7554/elife.80360).
# B1: Hairpin Ribozyme (parent)
# chain: GUCCUCUUUCACGUGCGCGUGAAAGAGAGAAGUGAACCAGAGAAACACACGUUGUGGUAUAUUACCUGGUA
# Variants of: B1
# Experiment: self-cleavage, relative activity (ratio to wild type); higher = more cleavage; co-transcriptional
row,Variant,self-cleavage
1,A47U C65A,0.0949
2,A45U G69U,0.197
3,A44G U62C,0.12
4,C46A A71C,0.342
5,A45C A64U,0.223
6,A45C A64C,0.138
7,A47G U60G,0.0656
8,A44U C48A,0.124
9,A47C C50A,0.29
10,C48G U52G,0.225
11,A47U U52C,0.0664
12,A45G G57A,0.0893
13,A45U C48U,0.135
14,A45U C48A,0.14
15,C46U U58C,0.221
16,A47U U60A,0.0931
17,A47U U60G,0.0964
18,A47U U60C,0.0859
19,C48A G69C,0.135
20,C46U G54U,0.179
21,A45G G68U,0.223
22,A45G G68A,0.122
23,A44U C46U,0.193
24,C46G C65A,0.174

row,Variant,self-cleavage
1,C48A G68A,0.165
2,C48A G68C,0.246
3,A47U C48G,0.137
4,A45U C50G,0.146
5,A47C U58C,0.318
6,A44C U63G,0.182
7,A44G U58C,0.0672
8,C46U C65G,0.087
9,A45U A64C,0.18
10,A44U U63A,0.141
11,A44U U63C,0.135
12,C46A G57U,0.123
13,C46G A71G,0.166
14,C46U C48G,0.141
15,A45G C66G,0.122
16,A45G C66A,0.176
17,C46G A59U,0.13
18,C48G G54C,0.189
19,C48G G54A,0.172
20,A45U U62A,0.149
21,A45U U62G,0.178
22,A45U U63C,0.287
23,C46U U60A,0.16
24,C46U U60C,0.247

row,Variant,self-cleavage
1,C46U A49G,0.24
2,C46U A49U,0.239
3,A44U C50U,0.252
4,A44G C65G,0.192
5,C46A U58A,0.198
6,C46A U58G,0.158
7,A45C A59G,0.208
8,C46G A61G,0.126
9,C46G A61U,0.157
10,C46G G54C,0.0768
11,A47G A49U,0.0814
12,C48G U53A,0.101
13,C48G U53C,0.206
14,A47U U63C,0.175
15,C46G U63A,0.279
16,A45C G56A,0.144
17,A45C G56C,0.312
18,A47C U60C,0.418
19,A47U G68U,0.224
20,C46A U60C,0.277
21,C46A U60A,0.0649
22,A45U G51C,0.0528
23,A44U G56A,0.191
24,A47C A71C,0.72

row,Variant,self-cleavage
1,A44G U67C,0.145
2,A44G C46G,0.0715
3,C48A U58A,0.0644
4,C48A U58G,0.165
5,A47U G69A,0.107
6,A47U G69U,0.138
7,A47U U55A,0.161
8,A47G C48A,0.122
9,A47U U62A,0.114
10,C46U A64C,0.0758
11,A45U U70C,0.056
12,A45U U70G,0.24
13,A45U U70A,0.0397
14,C46A A59C,0.3
15,C46A A59U,0.109
16,A44U U60C,0.103
17,A45U G56U,0.208
18,A45C A71G,0.154
19,A44G U70G,0.135
20,A47G A59G,0.196
21,C46U G68U,0.119
22,C46U G68A,0.0828
23,A45G C48A,0.109
24,A47C C66A,0.205

row,Variant,self-cleavage
1,A47U C66A,0.157
2,A47U C66U,0.228
3,A47U G57U,0.0955
4,A44U U55C,0.168
5,A44G C66G,0.15
6,A47U G56U,0.148
7,C46G C48U,0.156
8,C46G C48A,0.204
9,C48A G56C,0.131
10,A44U A49C,0.0643
11,C46A G54U,0.307
12,A47C A49G,0.308
13,A47C A49C,0.204
14,A44G U55G,0.185
15,C46U C50G,0.0749
16,C46G U60G,0.151
17,C46G U60A,0.091
18,A45G G56C,0.0912
19,A45U C65G,0.155
20,A47G U52C,0.124
21,A47U G51U,0.166
22,A47U G51C,0.31
23,C48A C65G,0.132
24,C48A C65U,0.189

row,Variant,self-cleavage
1,C46U U52C,0.215
2,A45G G54C,0.0826
3,A45C G51U,0.116
4,C46U U53A,0.215
5,C46U U53G,0.216
6,A44G G54C,0.119
7,A47C U53C,0.192
8,A47C U53G,0.174
9,A45G C46U,0.223
10,A45G C46A,0.17
11,A45C C65A,0.2
12,A45C C50G,0.211
13,A45C C50A,0.209
14,A45G A64G,0.1
15,A45G A64C,0.216
16,C48G G57C,0.169
17,C48G U60A,0.121
18,C48G U60G,0.108
19,C46U U62C,0.213
20,C46U U62G,0.237
21,C46G C50U,0.185
22,C46G A47G,0.136
23,C46G A47C,0.125
24,A45C G57C,0.105

row,Variant,self-cleavage
1,A47G G69C,0.112
2,A47G G69U,0.118
3,A45C U52G,0.0239
4,A45C U52C,0.176
5,A45C G68C,0.119
6,C46U A61G,0.129
7,C46U A61C,0.0903
8,A45U G57A,0.17
9,A45G U58A,0.174
10,A45C A61G,0.105
11,A44U A47C,0.0912
12,C48A G54A,0.169
13,C46G A49C,0.13
14,C46A U52A,0.196
15,A45G U62C,0.0923
16,A47G C65G,0.112
17,A45C G54U,0.152
18,A45U A49G,0.165
19,A45U A49C,0.134
20,A45U U58C,0.0664
21,A44G G56C,0.0768
22,A44G G56A,0.191
23,A44G A59G,0.131
